The source of these data is a protein production outcome set (Wang et al. 2014).

This data set is described as follows: label from the status in PepcDB records.

As for “MAVDVPGIISPKTAEAASQLTDGIGGRAYLNSNGAILVTKIQLPSSTQVSNGTAYIYSGFSGGTESDIGFQYSDKYNVWKPYMKVGSKGQDQVQYLEGGSQFTNTKGFRPGSTVQLTIYKNLNGNTRATYWGTNNAGYNGRLISEISKTNVGSISKWKALATVATTGSRQSIKSNFSTSFTNITIDNKAITPVIDTQDFAKVTVSGNSVSLSVVKNLEHHHHHH”, the protein production result was “not failed”.
“MAVECIKDKVTRYPERASYSDEDLVAMLDRNFTCTVSFIDGGIPYAIPMMLASEGKTIYLHGSMKSRIYGILKTGQLIAISLLEINGIVLAKEIKNNSINYVSALIFGRPYEIDDTEKKIEVFRLLTEKLVKGRRDNSIKPSYEDLNGVFVFAVKPETFSMKARTGPPHDTSTDDIWSGVLPIQHTISEAGENAPEYVKSLYGKRIFI”: the protein production entry was “not failed”.
For “MAVERPGYLRIAAELRKRISSGEFGIGDQIPTLPALAEEYGVLETTVRNALALLRNEGLIETRARAGTRVRERPPIHRLTADRYRNKAGVPSTPFTRDQGIGWSEYRLDKKYEQVEATMELAALFECEVGEPLLARHFVFHDNDQPTQMSVSYLRWSDVEGSPVADPIHEPWPGGTQAQLASIGIRVTEITESFTCGMPTDHESKTLKIGSGVPVLRYTRRHIAEDGRIVEVAHPIVRRGDTTVVDFVIKLD” the value was “failed”; for “MAVGLPLLLSSMAMPAQAAPAPEAPGNVAGVAKKNLDPGSYKDGRYMVVLAEKPAATYDGGTAGLAPTKPEEGKKLDVDSAEVKQYQQHLQQKQQEVAQQENVTIKRDFTTAVNGFSATLTADQAINLAKDPKVLMVAPDTQYAPDYSTTDFLKLSGPNGTWATQYGGQDNAGKGTVVGVIDTGYTPSNPFFAGEPVGPLVGNPQVGVPYRTADGKIAMLKADGDTFVGECQPGTDTGADYDGSACNSKVLSTHYFADAFLETVPPENRAPEEVISPVDVDSHGTHTASTAAGNANVDAVVDGRSFGTTSGIAPAAKLSVYKVCWEDTDPATGGCYGSASVDAIEQAILDGVDVLNYSISGSTTSTTDPVSLAFLSAASAGIFVATSAGNSGPTASTVNHGAPWLTTVAATSFSQELQGTVEFSDGSKFRGASIMNREVTGAGVVLSTNAASGEGNAALCAPGSLDPAKVAGKVVVCDRGVVDRTAKSAEVLRGGGVGMILVNLTDSSLDTDKHIIPTVHVNPPATQTIKDKVTANPAITVSLLNRDTTGLPAEAQPQIAGFSSRGPLLATDSDLLKPDVSAPGVAILAGVSPIGTGGDNFGFLSGTSMASPHVAGFGALILAKNPQWSPATVKSAMMTTAGPVKLANGAVNKDVFATGAGQVDPAKVLSPGLVYDATTEDYLKFIQGTGMDLGMEGLGTTQARDMNVPSFALGNLAGKIEVTRTLTALTPGTYRASVNVPGVNVKVTPSVLTFGAPGEKKTFKVQFENNNAALGKFAMGSLNWQGANKTVTSPIAVRPQSVIADKALAFTGTGPNGSGTINITSGTNLPVGVTIDGLSKADSSAVELVPGPFAGETNASNYVKKVTVGEGSALAKFSVISSNEAADFDMLVVTPSGQQLPAATASASETLSVPNPAAGDYYVYANLYASPNNQATKATVDAAVLGANQGNASVTPNPIRLANGKTGQISLNWKNLEPGSYIGRLTFAGTSEPSFVTVLVNPGGAVVVPDEEDPKKDKKDKKHRGKIRADEPTQSNNAG”, “failed”; for “MAVKIQTPAGTIEITNDVIATVVGGAATDIYGIVGMASKNQIKDNLNDILRRENYSRGVVVRQEDNGIAVDVYTIVSYGTKISEVSRNVQEKVKYNLETLLGVTANSVNVFVQGVRVLPDLEHHHHHH”, “not failed”.
For “MAVPPVEMYSGSFWNRMRKPLPLRTQVIRFTVVFVIVSFILAVALQITHERMPDPKVTKPLPDLGFELLTKISFLSVVTDVLIAFLSLLSFFTLWKLYLLHRHCVGSGEPELPCNIPGVSRFFLSVWLCKENCRIELRNIHTIAWIRFITSYALLLLFRSLVIVMTSMPTPVDKCQDPPKIENPVKNVILTVLTAGGGSIHCGDLMYSGHTVILTLHLMFHWIYGAMVHWSFRPVVTVVAIFSYYCIVASRSHYTDDVLVAIYLTIATFIAVGHNADGAPWQLQLFIRWLPCCGANSREVTEDSQPVMVAFKSEAVDELRERDDSAGLSGEVSTNEVVSHHHHHH” the value was “failed”.
For the sequence “MAVSHSVKERTISENSLIILLQGLQGRVTTVDLRDESVAHGRIDNVDAFMNIRLAKVTYTDRWGHQVKLDDLFVTGPNVRYVHIPDDVNITSTIEQQLQIIHRVRNFGGKGQGRWEFPPKNCK”, the protein production entry was “failed”.
Under “MAVTHRTRRPLRAANKTTNAASLGATCSRQQRARLVHCVGRRTNCLAPALCSPRFTAIPRWSSNAMSMSLADARYLFNRILGLIHRSMASMRTRGWRATWQRIRVHTQAPPVALGTPLWLPQPAPFAAFALPHSAAPRVSVVIPVYNHIAHTLACLRSLAAHPPLVDVEIIVVDDGSSDATAEQLPQVAGLHYHLRASNGGFIAACNDGIALARGDFVVLLNNDTIPQPGWLDRLIDTFAQHPSAGLIGAQLVYPDGRLQESGGVVFGDGSAWSYGRFESSDDPRYAYVRAMDYCSGAAIALPRTLLQTLGGLDRRYMPAYYEDTDLAFAVRAAGYQVLVQPASVVVHDEGTSNGTDTRTGVKAYQVRNQNVFAEKWQQALKAQLPVGTVPGPALLHRGQRQVLILDECVPQPDRDSGSLRQFNLIRLLREEGAHVVFVPTRREHAGRHTQALQQLGAEVWYAPFLEGVGSWLRTHGARFAVVLLVRHHVAHACLPLLKQYAPQARTLFDTVDLHYLRERRGAEVAGDANLLHGAERTRLRELEIMAATDVTLLVSAAEQAQLRTDAPHIRTALLSNLHDVAGSGHSFAQRRDLVFVGGFRHPPNVDAVQWFISAIFPQVRAQLPDVVFHCIGADLPDALKLLADECTGVQLHGHVPDLVPFMDNARIAVAPLRFGAGVKGKINLSMAHGQPVVGTTCAVEGMHLRDGEDVCVADDANAFAAAIVRLYQDAALWQRLADNGLRNVAEYFSLDAARATVRALFIAE” stands “failed”; under “MAVWLKLSLIVLCGCLSCWVGSVWAQPPLPGFAALSAGQYPLADRQLSQAIAHGKATAALYGNRCWVRLSLERYEEAIKDCSVALDLQPHEPETWLNRGLAYYRQGQSQAAIADFDQLLQQSPTDYRAYYNRGLAYLDLAQPEQAIADFQQALERLPATEIGAAVDLHTDRCMGELHRAQPGPAVSACSQALELQPSAARARYLRALAYWQLHQPQAAIADLRQACDAFAQAGATVQLDRARQLLQHWQQQSSLVAQAPRLQSKNWPGAVTYAMDLANCHDRSPLNELEFCCDRAFQQC”, “failed”.
For the sequence “MAWNTNLRWRLPLTCLLLQVIMVILFGVFVRYDFEADAHWWSERTHKNLSDMENEFYYRYPSFQDVHVMVFVGFGFLMTFLQRYGFSAVGFNFLLAAFGIQWALLMQGWFHFLQDRYIVVGVENLINADFCVASVCVAFGAVLGKVSPIQLLIMTFFQVTLFAVNEFILLNLLKVKDAGGSMTIHTFGAYFGLTVTRILYRRNLEQSKERQNSVYQSDLFAMIGTLFLWMYWPSFNSAISYHGDSQHRAAINTYCSLAACVLTSVAISSALHKKGKLDMVHIQNATLAGGVAVGTAAEMMLMPYGALIIGFVCGIISTLGFVYLTPFLESRLHIQDTCGINNLHGIPGIIGGIVGAVTAASASLEVYGKEGLVHSFDFQGFNGDWTARTQGKFQIYGLLVTLAMALMGGIIVGLILRLPFWGQPSDENCFEDAVYWEMPEGNSTVYIPEDPTFKPSGPSVPSVPMVSPLPMASSVPLVP”, the protein production result is “not failed”.
For “MAYATGITFASRSILPICSRTFLSPLRVASLLVFPEKSSATFFRRVQVPHLFSTSTTTLFSSVKCSIHSTSSPETENQAVFRPNVVDILEERGLLESITSENLRSACSDPKVAPLRVYCGFDPTAESLHLGNLLGIIVLSWFQRCGHQAVGLIGGATGRVGDPSGKSLERPELDADTLEKNIAGITKIIIKILGSNPSPGGSYVIFNNYDWWKDMTMLDFLNKVGRFARVGTMMAKESVKKRLESEQGMSYTEFTYQLLQAYDFLHLFKNEGINVQIGGSDQWGNITAGTDLIRKILQAEEAAYGLTFPLLLKNDGTKFGKSEDGAIWLSPSMLSPYKFYQYFFSVPDVDVIRFLKTLTFLSLDEIKILEDQMSKPGYVPNTAQIKLAEEVTRFVHGEEGLKEAIKATEALRPGAETKLDWNLIERIAEDIPSCSLPIDRVSGLSIVDLSVSAGLFESKSAARRMLKQGGFYMNNERVDDENKRVDEEDIVEGRGLVLSAGKKNKVVVRIS”, the protein production entry is “failed”.
Consider “MAYDLWYWDGIPGRGEFVRLALEAGKIPYRDRAREPGEDMLADMRRRRDTAPFAPPYLVADGMTIAQTANILLFLGVEHGLAPPDRAGRLWVNQLQLTIADLTAEAHDVHHPVAAGLYYEDQQDVALRRAADFRETRMPKFMQYFEQALDRPGGWLTDMGRWSYADLSLYHVVEGLLHAFPRRMRTLMHRYPRLMTLHARVAELPELRGYLASDRRLPFGDGIFRHYPELDGA”, for which the protein production result is on record as “failed”.
Under “MAYEDLSKKIIAGVGGKDNVKSVVHCTTRLRFKLKDESATHTDELKDTDGVITVVQSGGQYQVVIGNEVADVYETLIRVGGFADGGSVPDDYEDGEKMSIFDRFIDLISGIFTPMLGVLCAAGMIKGFVAMFVAFNWLSENSGTYKILYSIGDGFFYFLPIVLGLTAAKKFHVDQFVGMAIGMALCYPSIVALNSSKTVLSTLFSGSIFESQIHATFLGIPVVMMSYTSSVIPIILAVWFASKVQAFAKRIVPTVVKTFLVPFITLLIAVPITFLIIGPVASWLSDGISTVCVAIYNFSPIVAGLVMGAFWQVFVIFGVHWGFVAVMMANLASQGFDPILGLSLAASFAQTGVVLGILLQTKNQKTRGIALPAFISGIFGVTEPAIYGLTLPRKRPFILSCVAASIGGGIIGFAGTKMYMMGGMGLFSIPAAINSKTGVDGSVYGLIIAMAIAAVLGFALQMLFGYKSVDSNDKQTKVVETAATADPVMAGGVSVETTPTGAATKVEPNVTYNAATKLSSPETGQIIPLSEVKDEVFSSGAMGKGVAIEPTDGVLYAPADGEVALVFPTGHAVGLNTTDGAEILMHIGMDTVELEGKGFETLVQKGETVKAGQPLVKFDIEAIKAAGYPVTTPMVVTNSKNYHDVKLAFPAATEVNATEPLLQLN” stands “failed”; under “MAYEQFAYVYDELMQDVPYPEWVAWVLEQVEPGKRIADIGCGTGTATLLLADHYEVTGVDLSEEMLEIAQEKAMETNRHVDFWVQDMRELELPEPVDAITILCDSLNYLQTEADVKQTFDSAARLLTDGGKLLFDVHSPYKMETLFNGKTYATHAEQSSYIWFADPGEEPLSVVHELTFFIEGEDGRYDRVDETHHQRTYPPEQYITWLREAGFRVCAVTGDFKSDAPTETAERIFFVAEKI”, “not failed”.
